From the supplement of paper PMC9170038

System: MS2 coat protein
Assay: apparent KD of MS2 coat protein; designed switch direction (-1 OFF switch, 1 ON switch): -1; higher = weaker reporter binding
Method in brief: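 Designed RNA switches were transcribed on Illumina chips by stalled E. coli RNA polymerase and titrated with SNAP-549-labelled MS2 coat protein from 0.7 or 1.5 nM, doubling to 3 µM. Step length ran from 0.8–1.5 h at the lowest concentration to 10–20 min at the highest. The apparent KD is the median over clusters for each design, from curve-fitted normalised cluster fluorescence.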

[1] = Eterna round: R95, input ligand: FMN 200 uM
[2] = Eterna round: R95, input ligand: microRNA oligo, concentration not stated
[3] = Eterna round: R95, input ligand: none
[4] = input ligand: microRNA oligo, concentration not stated

CUAGUCCGAGGAUAUAUUAAGUGAAACAUGAGGAUCACCCAUGUUAUUUGAUGGAUGAAAAUAGAAGGCGGACUAG [Mat - Exclusion 5 - JL mod - D60] (puzzle: Exclusion 5)
apparent KD of MS2 coat protein [1]: 27.8 nM
apparent KD of MS2 coat protein [2]: 46.9 nM
apparent KD of MS2 coat protein [3]: 58.5 nM

CUAGUCCGAGGAUAUAUUAUGUGAAACAUGAGGAUCACCCAUGUAAUAUGAUGGAUGUAAAUAGAAGGCGGACUAG [Mat - Exclusion 5 - JL mod - D25] (puzzle: Exclusion 5)
apparent KD of MS2 coat protein [1]: 37.9 nM
apparent KD of MS2 coat protein [2]: 17.4 nM
apparent KD of MS2 coat protein [3]: 36.1 nM

CUAGUCCGAGGAUAUAUUAUGUGAUACAUGAGGAUCACCCAUGUUAUAUGAUGGAUAUUAAUAGAAGGCGGACUAG [Mat - Exclusion 5 - JL mod - D74] (puzzle: Exclusion 5)
apparent KD of MS2 coat protein [1]: 58 nM
apparent KD of MS2 coat protein [2]: 68.3 nM
apparent KD of MS2 coat protein [3]: 88 nM

CUAUAUUUAGGAUAUGUUCGGCUAGACAUGAGGAUCACCCAUGUGAGCCUAGGAGCAGCCACAGAAGGGAGUAUGU [Eternabot (L2) Solution 62] (Eterna round: R97, puzzle: Exclusion 5)
apparent KD of MS2 coat protein (input ligand: FMN 200 uM): 27.6 nM
apparent KD of MS2 coat protein (input ligand: none): 32.8 nM

CUAUGAGCUGAGGAUAUCUGCAGGUUGGGCCUGGGAGAAGGCGGCACAUGAGGAUCACCCAUGUGACCGAAAUA [Mod2 Ex6 A.17 by Nando] (Eterna round: R97, puzzle: Exclusion 6)
apparent KD of MS2 coat protein (input ligand: FMN 200 uM): 16.3 nM
apparent KD of MS2 coat protein (input ligand: none): 12.7 nM

CUAUGUUAGCAGGAUAUGCCAUUAUUCCUUUUCGCAGAAGGGCUUACAUGAGGAUCACCCAUGUUACAUUUCUU [JR_E6_Sub085] (puzzle: Exclusion 6)
apparent KD of MS2 coat protein [2]: 13.3 nM

CUAUUACGAGGAUAUGAUUUAAAUAACAUGAGGAUCACCCAUGUUUUUACGUUAUUAUGUUCAGAAGGCGUAUUGU [JR_E5_Sub025] (puzzle: Exclusion 5)
apparent KD of MS2 coat protein [2]: 28 nM

CUAUUCCGAGGAUAUACAUGAGGAUCACCCAUGUCGGGCCUCUGCGUUUAGCGCGAAAGUAGAAGGUGGGUUUC [JL Riri mod 9] (Eterna round: R96, puzzle: Exclusion 3)
apparent KD of MS2 coat protein (input ligand: FMN 200 uM): 35.5 nM
apparent KD of MS2 coat protein [4]: 26.8 nM
apparent KD of MS2 coat protein (input ligand: none): 32 nM

CUAUUCCGAGGAUAUACAUGAGGAUCACCCAUGUCGGGCCUCUGCGUUUAGCGCGAAAGUAGAAGGUGGGUUUC [JL Riri mod 9] (puzzle: Exclusion 3)
apparent KD of MS2 coat protein [2]: 28.3 nM

CUAUUGGCAGGAUAUGCUUUUUUUGACAUGAGGAUCACCCAUGUGAUGCAUUUUGGGUUUGCAGAAGGGCCUGAGU [JR_E5_Sub037] (puzzle: Exclusion 5)
apparent KD of MS2 coat protein [2]: 64.9 nM

CUAUUGUGAGGAUAUCAGUAGUAAUACAAUAGUAUUACUACUGAGAAGGCACAUGAGGAUCACCCAUGUUCCUU [Mat - Exclusion 4 - Mod of Omei - D76] (puzzle: Exclusion 4)
apparent KD of MS2 coat protein [2]: 14.4 nM

CUCAUGUGAGGAUAUAGUGCGUCUUCUAUUAUUAUUGAGUACUAGAAGGCACAUGAGGAUCACCCAUGUAGCAC [Ex4 - 3 - 45] (Eterna round: R96, puzzle: Exclusion 4)
apparent KD of MS2 coat protein [4]: 29.2 nM
apparent KD of MS2 coat protein (input ligand: none): 57.6 nM

CUCAUGUGAGGAUAUAGUGCGUCUUCUAUUAUUAUUGAGUACUAGAAGGCACAUGAGGAUCACCCAUGUAGCAC [Ex4 - 3 - 45] (puzzle: Exclusion 4)
apparent KD of MS2 coat protein [2]: 41.9 nM

CUCAUGUGUGAGGAUAUUAGAGCGAGCGUGUGAUAAGAAGGCACAACAUGAGGAUCACCCAUGUAGAGAGAGUG [Alacar 1st] (Eterna round: R97, puzzle: Exclusion 6)
apparent KD of MS2 coat protein (input ligand: FMN 200 uM): 28.9 nM
apparent KD of MS2 coat protein (input ligand: none): 69.6 nM

CUCAUGUUGGAGGAUAUAUUUGUCAACCGACCGAUAGAAGGCCACACAUGAGGAUCACCCAUGUCAUCCGGAGA [Eternabot (Original) Solution 50] (Eterna round: R97, puzzle: Exclusion 6)
apparent KD of MS2 coat protein (input ligand: FMN 200 uM): 28.3 nM
apparent KD of MS2 coat protein (input ligand: none): 255 nM

CUCCUACAUGAGGAUCACCCAUGUCAGGAUAUCUCAGUGGCGCCUAAAUGUGCCACCCAGAGAAGGGACGUGCA [Zainceve] (puzzle: Exclusion 1)
apparent KD of MS2 coat protein [2]: 12.3 nM

CUCCUCAUGGCGCCUAAACACAUGAGGAUCACCCAUGUACAGGCUUCUUGCCGUCUUAUAAUAAAACCGAGGAUGCG [Onleorqula] (puzzle: Sensor v3, turn-off variant 1)
apparent KD of MS2 coat protein [1]: 43.8 nM
apparent KD of MS2 coat protein [2]: 283 nM
apparent KD of MS2 coat protein [3]: 47.3 nM

CUCCUCGCUUAGGAUAUGUACACUUGCACCGUGACAGAAGGAAGCACUUGAGGAUCACCCAAGUGCCAGGGUGC [Geena] (Eterna round: R97, puzzle: Exclusion 6)
apparent KD of MS2 coat protein (input ligand: FMN 200 uM): 14.4 nM
apparent KD of MS2 coat protein (input ligand: none): 16.7 nM

CUCCUCGUGGCGCCUAAACACAUGAGGAUCACCCAUGUACAGGCUUUUUGCCGUCUUAUAAUAAAACCGAGGAGACG [Ataesarxe] (puzzle: Sensor v3, turn-off variant 1)
apparent KD of MS2 coat protein [1]: 16.6 nM
apparent KD of MS2 coat protein [2]: 18.8 nM
apparent KD of MS2 coat protein [3]: 16.6 nM

CUCGCAUUAGGAUAUACAUGAGGAUCACCCAUGUAUAAACCCAGGGUCAACGCCAUAUGUAGAAGGAGUAGCGA [Eternabot (L1) Solution 59] (Eterna round: R97, puzzle: Exclusion 3)
apparent KD of MS2 coat protein (input ligand: FMN 200 uM): 22.2 nM
apparent KD of MS2 coat protein (input ligand: none): 17 nM

CUCGGCUAAGGAUAUGCAUAGCGGGCCAAGUCUUCUCAAGUACAUGAGGAUCACCCAUGUAGAAGGUAGUUAAC [EX2 B.29] (Eterna round: R97, puzzle: Exclusion 2)
apparent KD of MS2 coat protein (input ligand: FMN 200 uM): 22.4 nM
apparent KD of MS2 coat protein (input ligand: none): 24.5 nM

CUCGGGCUGGUGAGGAUAUCGGGCUCUAAAGGGCUCGAGAAGGCACAUGAGGAUCACCCAUGUAAUGGCUCGGG [-29.3, -27.9 kcal, A 23%, 4-4bis] (Eterna round: R97, puzzle: Brourd's mod of Exclusion 4)
apparent KD of MS2 coat protein (input ligand: FMN 200 uM): 17.3 nM
apparent KD of MS2 coat protein (input ligand: none): 24.5 nM

CUCGUGGUGAAGGAUAUCCGCGAGAAAAUAAAAGGAGAAGGUCACACAUGAGGAUCACCCAUGUGAUGAAGAAA [Anesanza] (puzzle: Exclusion 6)
apparent KD of MS2 coat protein [1]: 16.4 nM
apparent KD of MS2 coat protein [2]: 11.6 nM
apparent KD of MS2 coat protein [3]: 11.9 nM

CUCGUGUAAGGAUAUAUGAGUCACGGAAAUAAACCGUGAAGAUAGAAGGUACAUGAGGAUCACCCAUGUAAAAC [Mod of Anonveat 4 - Jieux - Exclusion 4] (Eterna round: R97, puzzle: Exclusion 4)
apparent KD of MS2 coat protein (input ligand: FMN 200 uM): 124 nM
apparent KD of MS2 coat protein (input ligand: none): 99.4 nM

CUCGUGUCGGAGGAUAUCCAGCGCGAAAAUAAAGGAGAAGGCCGCACAUGAGGAUCACCCAUGUAACAUGGUCC [Onbier] (puzzle: Exclusion 6)
apparent KD of MS2 coat protein [2]: 44.8 nM

CUCGUGUGAGGAUAUCUAUUCCACGGACGGGAGUCUUGAUGAGAGAAGGCACAUGAGGAUCACCCAUGUAAUAA [Laveinxe] (puzzle: Exclusion 4)
apparent KD of MS2 coat protein [2]: 105 nM

CUCUUGAGUCAGGAUAUCGAGAGGCUAAUAAAACGAGAAGGGACUACAUGAGGAUCACCCAUGUGAUCGCAAAA [Geonge] (Eterna round: R97, puzzle: Exclusion 6)
apparent KD of MS2 coat protein (input ligand: FMN 200 uM): 433 nM
apparent KD of MS2 coat protein (input ligand: none): 61.7 nM

CUCUUGGCAGGAUAUGCUCUCUUAGACAUGAGGAUCACCCAUGUGUUCAUUCUUUCUUUUGCAGAAGGGCCUUAAC [JR_E5_Sub046] (Eterna round: R96, puzzle: Exclusion 5)
apparent KD of MS2 coat protein (input ligand: FMN 200 uM): 128 nM
apparent KD of MS2 coat protein [4]: 57.9 nM
apparent KD of MS2 coat protein (input ligand: none): 76.9 nM

CUCUUGGCAGGAUAUGCUCUCUUAGACAUGAGGAUCACCCAUGUGUUCAUUCUUUCUUUUGCAGAAGGGCCUUAAC [JR_E5_Sub046] (puzzle: Exclusion 5)
apparent KD of MS2 coat protein [2]: 65.2 nM

CUCUUGUCAGGAUAUCUAAGCUGCCUCCCAGUAGCCGAAUUAGAGAAGGGACAUGAGGAUCACCCAUGUAAACG [Enaeren] (puzzle: Exclusion 4)
apparent KD of MS2 coat protein [2]: 106 nM

CUCUUGUCAGGAUAUCUAAGCUGCCUCCCGGUAGCCGAAUUAGAGAAGGGACAUGAGGAUCACCCAUGUAAAAG [Qubile] (puzzle: Exclusion 4)
apparent KD of MS2 coat protein [1]: 58.3 nM
apparent KD of MS2 coat protein [2]: 160 nM
apparent KD of MS2 coat protein [3]: 280 nM

CUCUUGUUAGGAUAUCAAACCGGCGGCGGAGCCGCCGGAAGUGAGAAGGGACAUGAGGAUCACCCAUGUAAGAA [Maorgees] (puzzle: Exclusion 4)
apparent KD of MS2 coat protein [2]: 56.3 nM

CUGAACCCGGUAGGAUAUAUUGUGGGCAAGCAUGGAACGACAUGAGGAUCACCCAUGUAAUUUAGGUAGAAGGGCCAAAAGAUU [Excl-NG2-LRO09] (Eterna round: R96, puzzle: Exclusion NG 2)
apparent KD of MS2 coat protein (input ligand: FMN 200 uM): 34.6 nM
apparent KD of MS2 coat protein [4]: 28.9 nM
apparent KD of MS2 coat protein (input ligand: none): 53.9 nM

CUGAACCCGGUAGGAUAUAUUGUGGGCAAGCAUGGAACGACAUGAGGAUCACCCAUGUAAUUUAGGUAGAAGGGCCGAGAGAUU [Excl-NG2-LRO11] (Eterna round: R96, puzzle: Exclusion NG 2)
apparent KD of MS2 coat protein (input ligand: FMN 200 uM): 70.7 nM
apparent KD of MS2 coat protein [4]: 66.3 nM
apparent KD of MS2 coat protein (input ligand: none): 67.3 nM

CUGAAGGUGCAGGAUAUCCUGAAUAAGGGUUCAGGAGAAGGGCACACAUGAGGAUCACCCAUGUUAAUACUGCU [Eternabot (L2) Solution 54] (Eterna round: R97, puzzle: Exclusion 6)
apparent KD of MS2 coat protein (input ligand: FMN 200 uM): 29.5 nM
apparent KD of MS2 coat protein (input ligand: none): 39.1 nM

CUGAGCAGACGGAGAUCCCACAUGAGGAUCACCCAUGUCUCAAAAGCUUUUUGCUUGUCUUAUUCUCCUCUGUUCUC [Arorza] (Eterna round: R96, puzzle: Sensor v3, turn-off variant 1)
apparent KD of MS2 coat protein (input ligand: FMN 200 uM): 13.7 nM
apparent KD of MS2 coat protein [4]: 72.2 nM
apparent KD of MS2 coat protein (input ligand: none): 15.8 nM

CUGAGCAGACGGAGAUCCCACAUGAGGAUCACCCAUGUCUCAAAAGCUUUUUGCUUGUCUUAUUCUCCUCUGUUCUC [Arorza] (puzzle: Sensor v3, turn-off variant 1)
apparent KD of MS2 coat protein [1]: 13.9 nM
apparent KD of MS2 coat protein [2]: 100 nM
apparent KD of MS2 coat protein [3]: 11.4 nM
